Earlier results on 1 substance are cited in paper PMC8555654.

The data set concerns the target PlexA2 (Mus musculus) (UniProt P70207).

pKd: −log10 of the molar value.

PlexA2 (Mus musculus), sequence (P70207 35-1237): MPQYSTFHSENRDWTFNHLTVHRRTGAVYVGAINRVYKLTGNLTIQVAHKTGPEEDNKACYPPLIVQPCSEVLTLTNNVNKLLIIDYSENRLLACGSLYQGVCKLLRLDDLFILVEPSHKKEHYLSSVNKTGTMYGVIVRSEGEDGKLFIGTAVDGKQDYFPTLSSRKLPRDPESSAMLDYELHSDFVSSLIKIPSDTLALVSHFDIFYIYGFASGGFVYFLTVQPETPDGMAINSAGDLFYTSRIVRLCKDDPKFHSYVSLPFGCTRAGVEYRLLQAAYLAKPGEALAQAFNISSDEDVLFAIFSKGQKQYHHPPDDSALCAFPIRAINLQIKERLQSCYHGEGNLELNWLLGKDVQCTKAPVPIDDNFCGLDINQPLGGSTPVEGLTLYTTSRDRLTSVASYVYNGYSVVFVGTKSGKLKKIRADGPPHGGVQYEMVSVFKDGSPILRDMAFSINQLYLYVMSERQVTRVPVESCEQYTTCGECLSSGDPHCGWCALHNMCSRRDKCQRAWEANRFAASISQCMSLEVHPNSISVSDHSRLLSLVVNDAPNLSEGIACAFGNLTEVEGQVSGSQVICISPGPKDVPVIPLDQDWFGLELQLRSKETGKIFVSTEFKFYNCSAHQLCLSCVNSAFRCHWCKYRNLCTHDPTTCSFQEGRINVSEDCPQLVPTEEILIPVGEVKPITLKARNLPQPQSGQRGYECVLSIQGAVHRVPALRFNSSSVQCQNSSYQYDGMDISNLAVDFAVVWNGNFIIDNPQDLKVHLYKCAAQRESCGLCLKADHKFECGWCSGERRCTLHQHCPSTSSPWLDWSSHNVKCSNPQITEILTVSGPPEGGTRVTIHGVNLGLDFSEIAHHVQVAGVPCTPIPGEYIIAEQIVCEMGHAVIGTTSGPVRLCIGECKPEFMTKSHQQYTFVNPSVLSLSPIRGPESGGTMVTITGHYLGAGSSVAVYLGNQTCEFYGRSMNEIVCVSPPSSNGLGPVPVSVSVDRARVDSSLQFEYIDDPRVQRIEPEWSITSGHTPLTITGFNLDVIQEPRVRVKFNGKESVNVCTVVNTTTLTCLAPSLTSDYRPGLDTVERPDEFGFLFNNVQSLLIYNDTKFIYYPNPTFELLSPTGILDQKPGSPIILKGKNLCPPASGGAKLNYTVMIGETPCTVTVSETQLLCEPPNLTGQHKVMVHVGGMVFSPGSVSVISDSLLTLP

Take Npn1 (from UniProt P97333): the pKd was 4.18.
